Results on four molecules are retold here after patent publication US20250326840A1 (QURE BIOTECHNOLOGY SHANGHAI, published 2025).

Like-named read-outs stand apart in the source and are kept apart here.

For experiment [1], the target named is SIRPα V7 fusion Fc (mouse IgG2a) (human). Description: ELISA, SIRPα V7-mouse IgG2a Fc coated, anti-hFab detection. (In general: In an ELISA, binding on a coated surface is turned into a signal by an enzyme label.)
Experiment [2] concerns the target SIRPα V2 fusion Fc (mouse IgG2a) (human). Description: ELISA, SIRPα V2-mouse IgG2a Fc coated, anti-hFab detection; unit from the x axis; the curve is flat at the baseline, the fit is marked ambiguous (~).
For experiment [3], the target named is SIRPα V3 fusion Fc (mouse IgG2a) (human). Nature of the experiment: ELISA, SIRPα V3-mouse IgG2a Fc coated, anti-hFab detection; unit from the x axis; the curve is flat at the baseline, the fit is marked ambiguous (~).
The target in experiment [4] is SIRPα V10 fusion Fc (mouse IgG2a) (human). Nature of the experiment: ELISA, SIRPα V10-mouse IgG2a Fc coated, anti-hFab detection; unit from the x axis; the curve is flat at the baseline, the fit is marked ambiguous (~).
For experiment [5], the target named is T1, QP098 (cyno SIRPα (I7G9Z7) ECD(E31-R369)-flag-his) (cynomolgus).
T1 construct: the construct carries flag and his tags; also called cynoSIRPα (ECD); cynomolgus SIRPα
T1 chain: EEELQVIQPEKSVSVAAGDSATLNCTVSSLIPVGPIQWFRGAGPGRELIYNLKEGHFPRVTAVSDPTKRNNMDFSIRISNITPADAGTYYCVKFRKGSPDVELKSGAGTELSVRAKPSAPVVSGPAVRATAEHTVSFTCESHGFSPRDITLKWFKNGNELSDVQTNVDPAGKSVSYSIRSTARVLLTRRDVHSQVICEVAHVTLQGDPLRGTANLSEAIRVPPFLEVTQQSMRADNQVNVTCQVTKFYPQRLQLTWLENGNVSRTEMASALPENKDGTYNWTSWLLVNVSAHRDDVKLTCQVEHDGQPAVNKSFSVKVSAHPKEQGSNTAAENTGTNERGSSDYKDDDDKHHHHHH
Description: SPR, Biacore. For orientation: SPR reads the build-up and loss of mass on a sensor chip optically.

Experiment [6] has as its target T2, QP271 (rhesus SIRPα1-flag-his T-557-28) (rhesus monkey).
T2 construct: also called rhesus monkey SIRPα (QP271); monkeySIRPα1-flag-his
T2 chain: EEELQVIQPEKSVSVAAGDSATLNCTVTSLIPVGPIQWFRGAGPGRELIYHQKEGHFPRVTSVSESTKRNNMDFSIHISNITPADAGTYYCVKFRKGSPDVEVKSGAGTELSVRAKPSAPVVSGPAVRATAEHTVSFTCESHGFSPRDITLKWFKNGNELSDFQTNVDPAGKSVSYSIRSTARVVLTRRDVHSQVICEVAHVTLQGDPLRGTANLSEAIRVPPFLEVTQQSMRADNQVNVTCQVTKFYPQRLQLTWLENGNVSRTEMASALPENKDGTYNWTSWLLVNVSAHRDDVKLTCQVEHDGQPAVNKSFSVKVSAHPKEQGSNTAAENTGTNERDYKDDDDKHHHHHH
Nature of the experiment: SPR, Biacore.

The target in experiment [7] is T3, QP273 (cynoSIRPα2-flag-his T-557-14) (cynomolgus).
T3 construct: also called cynomolgus SIRPα (QP273)
T3 chain: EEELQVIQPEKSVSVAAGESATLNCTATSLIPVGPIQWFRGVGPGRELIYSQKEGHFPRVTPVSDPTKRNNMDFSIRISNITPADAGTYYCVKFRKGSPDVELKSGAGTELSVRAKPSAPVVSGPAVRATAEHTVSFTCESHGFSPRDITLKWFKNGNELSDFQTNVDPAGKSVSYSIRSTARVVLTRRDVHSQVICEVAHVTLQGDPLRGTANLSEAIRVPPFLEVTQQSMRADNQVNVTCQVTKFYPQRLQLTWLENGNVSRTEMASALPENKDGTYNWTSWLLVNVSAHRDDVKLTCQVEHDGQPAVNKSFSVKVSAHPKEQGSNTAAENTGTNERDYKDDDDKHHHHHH
Nature of the experiment: SPR, Biacore.

For experiment [8], the target named is T1, QP098 (cyno SIRPα (I7G9Z7) …). Description: binding ELISA, antigen coated.
The target in experiment [9] is T4, QP100 (cyno SIRPα (G7PGS8) ECD(E29-R368)-flag-his) (cynomolgus).
T4 construct: the construct carries flag and his tags; also called cynoSIRPα-flag-his; Cynomolgus SIRPα (QP100)
T4 chain: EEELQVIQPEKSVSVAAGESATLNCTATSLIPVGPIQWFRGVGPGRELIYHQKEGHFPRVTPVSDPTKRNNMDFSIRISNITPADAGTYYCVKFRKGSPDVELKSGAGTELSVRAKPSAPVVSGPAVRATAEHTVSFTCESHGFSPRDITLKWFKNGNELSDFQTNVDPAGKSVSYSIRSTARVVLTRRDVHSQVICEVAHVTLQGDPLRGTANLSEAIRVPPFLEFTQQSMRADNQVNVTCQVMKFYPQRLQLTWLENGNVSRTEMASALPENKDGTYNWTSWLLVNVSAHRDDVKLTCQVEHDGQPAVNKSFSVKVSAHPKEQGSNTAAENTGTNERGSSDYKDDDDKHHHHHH
Description: binding ELISA, antigen coated.

The target of experiment [10] is T2, QP271 (rhesus SIRPα1-flag-his T-557-28). Nature of the experiment: binding ELISA, antigen coated.
Experiment [11] deals with T3, QP273 (cynoSIRPα2-flag-his T-557-14). Nature of the experiment: binding ELISA, antigen coated.
The experiment “QP095 (human SIRPα V2 …)” concerns the target T5, QP095 (human SIRPα V2 ECD(E31-R370)-mFC(IgG2a)) (human).
T5 construct: also called human SIRPα V2 recombinant protein (QP095)
Nature of the experiment: ELISA, QP095 (SIRPα V2) coated, anti-hFab detection; unit from the x axis Log(Conc.(nM)).

Experiment [12] has as its target T6, QP094 (human SIRPα V1 ECD(E31-R370)-flag-his) (human, UniProt P78324 31-370).
T6 construct: the construct carries flag and his tags; also called SIRPαV1-flag-his; SIRPαV1-his (QP094)
Description: SPR, Biacore 8K.

Experiment [13] concerns the target T6, QP094 (human SIRPα V1 …). Nature of the experiment: SPR, Biacore 8K. The source holds these as a separate data set.
The target in the experiment “QP096 (human SIRPα V2 …)” is T7, QP096 (human SIRPα V2 ECD(E31-R370)-flag-his) (human).
T7 construct: the construct carries flag and his tags; also called SIRPαV2-Flag-his; Human SIRPα V2 (QP096)
Description: SPR, Biacore 8K.

Sequence of SIRPα V7 fusion Fc (mouse IgG2a) (human) (chain, as listed by the source limits assumed): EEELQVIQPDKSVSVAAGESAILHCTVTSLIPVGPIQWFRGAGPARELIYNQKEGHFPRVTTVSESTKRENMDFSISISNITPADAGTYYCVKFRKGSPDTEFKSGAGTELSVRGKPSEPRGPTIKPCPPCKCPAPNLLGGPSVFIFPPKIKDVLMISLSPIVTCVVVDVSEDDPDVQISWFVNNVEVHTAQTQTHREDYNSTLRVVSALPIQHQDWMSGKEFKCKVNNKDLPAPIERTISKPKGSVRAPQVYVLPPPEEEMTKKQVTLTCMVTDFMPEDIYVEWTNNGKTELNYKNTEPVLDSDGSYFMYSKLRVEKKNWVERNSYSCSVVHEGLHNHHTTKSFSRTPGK
Sequence of SIRPα V2 fusion Fc (mouse IgG2a) (human) (chain, as listed by the source limits assumed): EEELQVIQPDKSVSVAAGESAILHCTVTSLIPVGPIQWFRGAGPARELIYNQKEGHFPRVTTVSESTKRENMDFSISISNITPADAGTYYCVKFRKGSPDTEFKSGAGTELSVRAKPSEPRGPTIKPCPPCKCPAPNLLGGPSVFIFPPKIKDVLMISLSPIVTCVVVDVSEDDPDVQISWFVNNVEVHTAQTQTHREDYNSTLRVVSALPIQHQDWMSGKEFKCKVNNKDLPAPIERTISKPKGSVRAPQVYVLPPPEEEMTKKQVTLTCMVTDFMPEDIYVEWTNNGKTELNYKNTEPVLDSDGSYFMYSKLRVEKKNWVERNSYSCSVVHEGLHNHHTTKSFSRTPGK

B1: QP250251 (18D5 analog) (antibody, human IgG4 S228P, kappa, V domains shown)
VH: QVQLQQPGAELVRPGSSVKLSCKASGYTFTSYWVHWVKQRPIQGLEWIGNIDPSDSDTHYNQKFKDKASLTVDKSSSTAYMQLSSLTFEDSAVYYCVRGGTGTMAWFAYWGQGTLVTVSA
VL: DVVMTQTPLSLPVSLGDQASISCRSSQSLVHSYGNTYLYWYLQKPGQSPKLLIYRVSNRFSGVPDRFSGSGSGTDFTLKISRVEAEDLGVYFCFQGTHVPYTFGSGTKLEIKR
notes: also called SIRPα antibody 18D5 from OSE
For B1, the binding result in [1] is “no binding (tested: about 67 nM (last point at log 1.8))”. Besides, the EC50 – broadly, the concentration needed to bring the measured effect to its halfway point – in experiment [2] is roughly 0.0554 nM; in experiment [3] it was roughly 58.7 nM; in experiment [4] it was roughly 0.0554 nM.

B2: QP256279 (antibody, human IgG4, V domains shown)
VH: QVQLVQSGAEVKKPGASVKVSCKASGYTFTNYWINWVRQAPGQGLEWIAMIDPSDSETHYNQIFKDRATLTTDTSTSTAYMELRSLRSDDTAVYYCAMDYGSLYAMDYWGRGTLVTVSS
VL: DIVLTQSPDSLAVSLGERATINCRASQSVRSSGYNWIFWYQQKPGQPPKLLIYLASNRDSGVPDRFSGSGSGTDFTLTISSLQAEDVAVYYCQHSRELPTFGQGTKLEIK
notes: Human IgG4 heavy constant region and kappa CL
With B2, the figures for the Kd in [5], in experiment [6] and in experiment [7] were 1.56 nM, 0.441 nM and 0.918 nM, respectively. Moreover, the EC50 in experiment [8] amounted to 0.619 ng/mL; in experiment [9] it was 0.558 ng/mL; in experiment [10], 0.601 ng/mL; in experiment [11], 0.721 ng/mL.

B3: QP32700279 (antibody, human IgG1, kappa, L234A L235A, V domains shown)
VH: QVQLVQSGAEVKKPGASVKVSCKASGYTFTNYWINWVRQAPGQGLEWIAMIDPSDSETHYNQIFKDRATLTTDTSTSTAYMELRSLRSDDTAVYYCAMDYGSLYAMDYWGRGTLVTVSS
VL: DIVLTQSPDSLAVSLGERATINCRASQSVRSSGYNWIFWYQQKPGQPPKLLIYLASNRDSGVPDRFSGSGSGTDFTLTISSLQAEDVAVYYCQHSRELPTFGQGTKLEIKR
notes: also called SIRPα monoclonal antibody CHO71
As to B3, the EC50 with QP095 (human SIRPα V2 …) turned out to be 0.16 nM.

B4: QP026249 (KWAR23 analog) (antibody, human IgG4 S228P, kappa)
heavy: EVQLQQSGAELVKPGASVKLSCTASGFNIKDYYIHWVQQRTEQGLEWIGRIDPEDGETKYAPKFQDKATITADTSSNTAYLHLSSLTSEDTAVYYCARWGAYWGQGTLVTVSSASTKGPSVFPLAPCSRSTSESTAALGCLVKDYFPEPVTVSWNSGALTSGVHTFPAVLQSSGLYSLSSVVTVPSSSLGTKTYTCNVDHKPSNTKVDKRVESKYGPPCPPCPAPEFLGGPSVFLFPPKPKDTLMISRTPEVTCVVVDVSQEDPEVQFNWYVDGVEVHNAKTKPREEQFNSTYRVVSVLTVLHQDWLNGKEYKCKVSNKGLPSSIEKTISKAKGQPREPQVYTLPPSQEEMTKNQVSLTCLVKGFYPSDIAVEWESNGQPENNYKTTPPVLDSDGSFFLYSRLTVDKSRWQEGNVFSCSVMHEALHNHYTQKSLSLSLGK
light: QIVLTQSPAIMSASPGEKVTLTCSASSSVSSSYLYWYQQKPGSSPKLWIYSTSNLASGVPARFSGSGSGTSYSLTISSMEAEDAASYFCHQWSSYPRTFGAGTKLELKRTVAAPSVFIFPPSDEQLKSGTASVVCLLNNFYPREAKVQWKVDNALQSGNSQESVTEQDSKDSTYSLSSTLTLSKADYEKHKVYACEVTHQGLSSPVTKSFNRGEC
notes: also called KAWA23 analog; control antibody KWAR23 (QP026249), human IgG4
Regarding B4, in the experiment with QP094 (human SIRPα V1 …) [12], the Kd (in general, a measure of binding affinity in units of concentration) amounted to 4.7 nM; the koff (usually the first-order rate constant of dissociation) came to 0.00386 s⁻¹; the kon (usually the second-order rate constant of association) is 822000 M⁻¹ s⁻¹. In the experiment with QP094 (human SIRPα V1 …) [13], this molecule yielded a dissociation constant (Kd) of 4.69 nM, a koff of 0.00386 s⁻¹ and an on-rate constant (kon) of 822000 M⁻¹ s⁻¹. In the experiment with QP096 (human SIRPα V2 …), the Kd came to 17.5 nM, the dissociation rate constant (koff) came to 0.0242 s⁻¹ and the kon was 1.38e+06 M⁻¹ s⁻¹. Moreover, a half-maximal response with QP095 (human SIRPα V2 …) (EC50) required 0.249 nM.
